From the supplement of paper PMC5998384

Columns and labels:
HeLa Kyoto [1] = experiment: solubility change mitosis vs G1/S (difference of NP-40 vs SDS log2 ratios) (log2 ratio difference); higher = more soluble in mitosis
HeLa Kyoto [2] = experiment: thermal stability score vs G1/S (z-score of summed log2 fold changes over temperatures); higher = more thermally stable than in G1/S
HeLa Kyoto [3] = experiment: melting temperature (median over replicates), in situ; higher = more thermally stable
HeLa Kyoto [4] = experiment: solubility in G1/S (NP-40 vs SDS abundance) (log2 ratio); higher = more soluble; conditions: cell cycle stage: G1/S
[5] = cell cycle stage: early G1 (4.5 h after nocodazole release)
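For melting temperature (median over replicates), in situ in this document: HeLa Kyoto cells synchronized by double thymidine or nocodazole block, proteins quantified by TMT10plex mass spectrometry, three independent biological replicates.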
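For solubility change mitosis vs G1/S (difference of NP-40 vs SDS log2 ratios) in this document: synchronized HeLa Kyoto cells (double thymidine block for G1/S, nocodazole release for mitosis), protein amounts in NP-40 versus SDS lysates quantified by mass spectrometry, three biological replicates.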
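For solubility in G1/S (NP-40 vs SDS abundance) in this document: HeLa Kyoto cells arrested at G1/S by double thymidine block, proteins quantified by TMT10plex mass spectrometry in mild NP-40 versus SDS extracts, three biological replicates.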
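For thermal stability score vs G1/S (z-score of summed log2 fold changes over temperatures) in this document: synchronized HeLa Kyoto cells, proteins quantified by TMT10plex mass spectrometry, three biological replicates, mitosis taken 0.5 h after nocodazole release, G1/S directly after double thymidine block.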

Which “solubility change mitosis (log2)” value (HeLa Kyoto [1]) does the source give for “MSSDASQGVITTPPPPSMPHKERYFDRINENDPEYIRERNMSPDLRQDFNMMEQRKRVTQILQSPAFREDLECLIQEQMKKGHNPTGLLALQQIADYIMANSFSGFSSPPLSLGMVTPINDLPGADTSSYVKGEKLTRCKLASLYRLVDLFGWAHLANTYISVRISKEQDHIIIIPRGLSFSEATASNLVKVNIIGEVVDQGSTNLKIDHTGFSPHAAIYSTRPDVKCVIHIHTLATAAVSSMKCGILPISQESLLLGDVAYYDYQGSLEEQEERIQLQKVLGPSCKVLVLRNHGVVALGETLEEAFHYIFNVQLACEIQVQALAGAGGVDNLHVLDFQKYKAFTYTVAASGGGGVNMGSHQKWKVGEIEFEGLMRTLDNLGYRTGYAYRHPLIREKPRHKSDVEIPATVTAFSFEDDTVPLSPLKYMAQRQQREKTRWLNSPNTYMKVNVPEESRNGETSPRTKITWMKAEDSSKVSGGTPIKIEDPNQFVPLNTNPNEVLEKRNKIREQNRYDLKTAGPQSQLLAGIVVDKPPSTMQFEDDDHGPPAPPNPFSHLTEGELEEYKRTIERKQQGLEDAEQELLSDDASSVSQIQSQTQSPQNVPEKLEENHELFSKSFISMEVPVMVVNGKDDMHDVEDELAKRVSRLSTSTTIENIEITIKSPEKIEEVLSPEGSPSKSPSKKKKKFRTPSFLKKNKKKEKVEA [ADD3]” here?
The value was 0.481.

And the thermal stability score (HeLa Kyoto [2]; [5])?
Its thermal stability score is -4.93.

What about the thermal stability score (HeLa Kyoto [2]; cell cycle stage: mitosis) of the same sequence?
Its thermal stability score is -3.64.

What about the melting temperature (HeLa Kyoto [3]; cell cycle stage: G1/S) of the same sequence?
Its melting temperature is 55.9 °C.

And the melting temperature (HeLa Kyoto [3]; cell cycle stage: mitosis)?
The melting temperature was 55.5 °C.

And the “solubility in G1/S (log2)” value (HeLa Kyoto [4])?
The value was -0.181.

For “MSSEDREAQEDELLALASIYDGDEFRKAESVQGGETRIYLDLPQNFKIFVSGNSNECLQNSGFEYTICFLPPLVLNFELPPDYPSSSPPSFTLSGKWLSPTQLSALCKHLDNLWEEHRGSVVLFAWMQFLKEETLAYLNIVSPFELKIGSQKKVQRRTAQASPNTELDFGGAAGSDVDQEEIVDERAVQDVESLSNLIQEILDFDQAQQIKCFNSKLFLCSICFCEKLGSECMYFLECRHVYCKACLKDYFEIQIRDGQVQCLNCPEPKCPSVATPGQVKELVEAELFARYDRLLLQSSLDLMADVVYCPRPCCQLPVMQEPGCTMGICSSCNFAFCTLCRLTYHGVSPCKVTAEKLMDLRNEYLQADEANKRLLDQRYGKRVIQKALEEMESKEWLEKNSKSCPCCGTPIEKLDGCNKMTCTGCMQYFCWICMGSLSRANPYKHFNDPGSPCFNRLFYAVDVDDDIWEDEVED [RNF14]”, which “solubility change mitosis (log2)” value (HeLa Kyoto [1]) is on record?
Its value is -0.286.

What about the thermal stability score (HeLa Kyoto [2]; [5]) of the same sequence?
The thermal stability score was 0.508.

What about the thermal stability score (HeLa Kyoto [2]; cell cycle stage: mitosis) of the same sequence?
The thermal stability score was 1.14.

And the melting temperature (HeLa Kyoto [3]; cell cycle stage: G1/S)?
The melting temperature was 49.6 °C.

What about the melting temperature (HeLa Kyoto [3]; cell cycle stage: mitosis) of the same sequence?
The melting temperature was 49.1 °C.

What about the “solubility in G1/S (log2)” value (HeLa Kyoto [4]) of the same sequence?
The value was 0.119.

“MSSFSESALEKKLSELSNSQQSVQTLSLWLIHHRKHAGPIVSVWHRELRKAKSNRKLTFLYLANDVIQNSKRKGPEFTREFESVLVDAFSHVAREADEGCKKPLERLLNIWQERSVYGGEFIQQLKLSMEDSKSPPPKATEEKKSLKRTFQQIQEEEDDDYPGSYSPQDPSAGPLLTEELIKALQDLENAASGDATVRQKIASLPQEVQDVSLLEKITDKEAAERLSKTVDEACLLLAEYNGRLAAELEDRRQLARMLVEYTQNQKDVLSEKEKKLEEYKQKLARVTQVRKELKSHIQSLPDLSLLPNVTGGLAPLPSAGDLFSTD [RPRD1B]” was tested. Which “solubility change mitosis (log2)” value (HeLa Kyoto [1]) did it give?
The value was 0.00357.

And the thermal stability score (HeLa Kyoto [2]; [5])?
Its thermal stability score is -0.302.

And the thermal stability score (HeLa Kyoto [2]; cell cycle stage: mitosis)?
Its thermal stability score is 0.484.

And the melting temperature (HeLa Kyoto [3]; cell cycle stage: G1/S)?
The melting temperature was 49.5 °C.

What about the melting temperature (HeLa Kyoto [3]; cell cycle stage: mitosis) of the same sequence?
Its melting temperature is 50 °C.

What about the “solubility in G1/S (log2)” value (HeLa Kyoto [4]) of the same sequence?
The value was 0.562.

Which results are given for “MSSGAPQKSSPMASGAEETPGFLDTLLQDFPALLNPEDPLPWKAPGTVLSQEEVEGELAELAMGFLGSRKAPPPLAAALAHEAVSQLLQTDLSEFRKLPREEEEEEEDDDEEEKAPVTLLDAQSLAQSFFNRLWEVAGQWQKQVPLAARASQRQWLVSIHAIRNTRRKMEDRHVSLPSFNQLFGLSDPVNRAYFAVFDGHGGVDAARYAAVHVHTNAARQPELPTDPEGALREAFRRTDQMFLRKAKRERLQSGTTGVCALIAGATLHVAWLGDSQVILVQQGQVVKLMEPHRPERQDEKARIEALGGFVSHMDCWRVNGTLAVSRAIGDVFQKPYVSGEADAASRALTGSEDYLLLACDGFFDVVPHQEVVGLVQSHLTRQQGSGLRVAEELVAAARERGSHDNITVMVVFLRDPQELLEGGNQGEGDPQAEGRRQDLPSSLPEPETQAPPRS [PPM1F]”?
solubility change mitosis (log2) (HeLa Kyoto [1]): -0.0364; thermal stability score (HeLa Kyoto [2]; [5]): -0.813; thermal stability score (HeLa Kyoto [2]; cell cycle stage: mitosis): -0.95; melting temperature (HeLa Kyoto [3]; cell cycle stage: G1/S): 51.8 °C; melting temperature (HeLa Kyoto [3]; cell cycle stage: mitosis): 52.7 °C; solubility in G1/S (log2) (HeLa Kyoto [4]): 0.464

What does the source list for “MSSGIHVALVTGGNKGIGLAIVRDLCRLFSGDVVLTARDVTRGQAAVQQLQAEGLSPRFHQLDIDDLQSIRALRDFLRKEYGGLDVLVNNAGIAFKVADPTPFHIQAEVTMKTNFFGTRDVCTELLPLIKPQGRVVNVSSIMSVRALKSCSPELQQKFRSETITEEELVGLMNKFVEDTKKGVHQKEGWPSSAYGVTKIGVTVLSRIHARKLSEQRKGDKILLNACCPGWVRTDMAGPKATKSPEEGAETPVYLALLPPDAEGPHGQFVSEKRVEQW [CBR1]”?
solubility change mitosis (log2) (HeLa Kyoto [1]): -0.0843; thermal stability score (HeLa Kyoto [2]; [5]): -1.36; thermal stability score (HeLa Kyoto [2]; cell cycle stage: mitosis): -0.874; melting temperature (HeLa Kyoto [3]; cell cycle stage: G1/S): 53.2 °C; melting temperature (HeLa Kyoto [3]; cell cycle stage: mitosis): 53 °C; solubility in G1/S (log2) (HeLa Kyoto [4]): 0.626

How did the “solubility change mitosis (log2)” value (HeLa Kyoto [1]) turn out when “MSSGKSARYNRFSGGPSNLPTPDVTTGTRMETTFGPAFSAVTTITKADGTSTYKQHCRTPSSSSTLAYSPRDEEDSMPPISTPRRSDSAISVRSLHSESSMSLRSTFSLPEEEEEPEPLVFAEQPSVKLCCQLCCSVFKDPVITTCGHTFCRRCALKSEKCPVDNVKLTVVVNNIAVAEQIGELFIHCRHGCRVAGSGKPPIFEVDPRGCPFTIKLSARKDHEGSCDYRPVRCPNNPSCPPLLRMNLEAHLKECEHIKCPHSKYGCTFIGNQDTYETHLETCRFEGLKEFLQQTDDRFHEMHVALAQKDQEIAFLRSMLGKLSEKIDQLEKSLELKFDVLDENQSKLSEDLMEFRRDASMLNDELSHINARLNMGILGSYDPQQIFKCKGTFVGHQGPVWCLCVYSMGDLLFSGSSDKTIKVWDTCTTYKCQKTLEGHDGIVLALCIQGCKLYSGSADCTIIVWDIQNLQKVNTIRAHDNPVCTLVSSHNVLFSGSLKAIKVWDIVGTELKLKKELTGLNHWVRALVAAQSYLYSGSYQTIKIWDIRTLDCIHVLQTSGGSVYSIAVTNHHIVCGTYENLIHVWDIESKEQVRTLTGHVGTVYALAVISTPDQTKVFSASYDRSLRVWSMDNMICTQTLLRHQGSVTALAVSRGRLFSGAVDSTVKVWTC [TRAF7]” was run?
Its value is -0.0251.

What about the thermal stability score (HeLa Kyoto [2]; [5]) of the same sequence?
The thermal stability score was -0.465.

What about the thermal stability score (HeLa Kyoto [2]; cell cycle stage: mitosis) of the same sequence?
The thermal stability score was 0.328.

And the melting temperature (HeLa Kyoto [3]; cell cycle stage: G1/S)?
The melting temperature was 50.5 °C.

What about the “solubility in G1/S (log2)” value (HeLa Kyoto [4]) of the same sequence?
The value was -0.171.
